# B1: Phytochrome B (Arabidopsis thaliana (Mouse-ear cress)), P14713 (parent)
# chain: MVSGVGGSGGGRGGGRGGEEEPSSSHTPNNRRGGEQAQSSGTKSLRPRSNTESMSKAIQQYTVDARLHAVFEQSGESGKSFDYSQSLKTTTYGSSVPEQQITAYLSRIQRGGYIQPFGCMIAVDESSFRIIGYSENAREMLGIMPQSVPTLEKPEILAMGTDVRSLFTSSSSILLERAFVAREITLLNPVWIHSKNTGKPFYAILHRIDVGVVIDLEPARTEDPALSIAGAVQSQKLAVRAISQLQALPGGDIKLLCDTVVESVRDLTGYDRVMVYKFHEDEHGEVVAESKRDDLEPYIGLHYPATDIPQASRFLFKQNRVRMIVDCNATPVLVVQDDRLTQSMCLVGSTLRAPHGCHSQYMANMGSIASLAMAVIINGNEDDGSNVASGRSSMRLWGLVVCHHTSSRCIPFPLRYACEFLMQAFGLQLNMELQLALQMSEKRVLRTQTLLCDMLLRDSPAGIVTQSPSIMDLVKCDGAAFLYHGKYYPLGVAPSEVQIKDVVEWLLANHADSTGLSTDSLGDAGYPGAAALGDAVCGMAVAYITKRDFLFWFRSHTAKEIKWGGAKHHPEDKDDGQRMHPRSSFQAFLEVVKSRSQPWETAEMDAIHSLQLILRDSFKESEAAMNSKVVDGVVQPCRDMAGEQGIDELGAVAREMVRLIETATVPIFAVDAGGCINGWNAKIAELTGLSVEEAMGKSLVSDLIYKENEATVNKLLSRALRGDEEKNVEVKLKTFSPELQGKAVFVVVNACSSKDYLNNIVGVCFVGQDVTSQKIVMDKFINIQGDYKAIVHSPNPLIPPIFAADENTCCLEWNMAMEKLTGWSRSEVIGKMIVGEVFGSCCMLKGPDALTKFMIVLHNAIGGQDTDKFPFPFFDRNGKFVQALLTANKRVSLEGKVIGAFCFLQIPSPELQQALAVQRRQDTECFTKAKELAYICQVIKNPLSGMRFANSLLEATDLNEDQKQLLETSVSCEKQISRIVGDMDLESIEDGSFVLKREEFFLGSVINAIVSQAMFLLRDRGLQLIRDIPEEIKSIEVFGDQIRIQQLLAEFLLSIIRYAPSQEWVEIHLSQLSKQMADGFAAIRTEFRMACPGEGLPPELVRDMFHSSRWTSPEGLGLSVCRKILKLMNGEVQYIRESERSYFLIILELPVPRKRPLSTASGSGDMMLMMPY
# partner: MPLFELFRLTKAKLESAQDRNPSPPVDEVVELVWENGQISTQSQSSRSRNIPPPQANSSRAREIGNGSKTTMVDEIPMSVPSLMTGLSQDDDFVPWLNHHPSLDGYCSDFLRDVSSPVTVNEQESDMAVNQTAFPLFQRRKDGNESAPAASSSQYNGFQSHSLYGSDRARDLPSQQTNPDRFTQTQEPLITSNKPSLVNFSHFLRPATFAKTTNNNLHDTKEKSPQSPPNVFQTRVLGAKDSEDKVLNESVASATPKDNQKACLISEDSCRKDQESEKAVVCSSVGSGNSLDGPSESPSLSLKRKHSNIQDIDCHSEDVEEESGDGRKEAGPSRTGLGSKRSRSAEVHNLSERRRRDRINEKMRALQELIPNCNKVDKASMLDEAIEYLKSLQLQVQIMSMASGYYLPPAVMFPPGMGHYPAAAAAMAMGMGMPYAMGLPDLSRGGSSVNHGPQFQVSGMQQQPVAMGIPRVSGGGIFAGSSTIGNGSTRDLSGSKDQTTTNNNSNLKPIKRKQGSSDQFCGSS
# Variants of: B1
# Conditions: with pif3_arath PIF3, O80536
row,effect of a mutation on the interaction,Variant
1,decreasing interaction,E812K
2,decreasing interaction,A750V
3,decreasing interaction,G767R
